The values below are quoted from earlier work in PMC5432642.

This series concerns the target C3b C3b (Homo sapiens) (UniProt P01024).

FH19–20 FH19-20, sequence (P08603 1107-1231): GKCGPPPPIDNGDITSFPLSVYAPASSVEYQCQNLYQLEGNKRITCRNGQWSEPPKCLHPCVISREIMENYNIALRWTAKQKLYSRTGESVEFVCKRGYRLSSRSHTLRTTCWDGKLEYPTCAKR
C3b C3b (Homo sapiens), sequence (P01024 566-670): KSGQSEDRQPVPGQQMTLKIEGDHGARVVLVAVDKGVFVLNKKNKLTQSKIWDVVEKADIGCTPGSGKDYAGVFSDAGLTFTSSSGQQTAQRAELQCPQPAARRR

Usually Kd stands for the constant that tells how readily two partners part at equilibrium. In the case of FH19–20 FH19-20 (from UniProt P08603), the Kd was 5 µM.
